{
  "source": "patent US20250277031A1",
  "about": "(BEIJING HANMI PHARMACEUTICAL, published 2025)",
  "binders": {"B1": {"name": "anti-human CD47 murine monoclonal antibody secreted by clone CD47-18-5 (antibody, V domains shown)", "VH": "EVQLQQSGAELVKPGASVKLSCTASGFNIEDIYMHWVKQRPEQGLEWIGRIDPANDNTKYGPKLQGRATITADTSSNTAYLQLSGLTSEDTGVYYCVRRIPTDIMDYWGPGTSVTVSS", "VL": "DIVMTQSQKFMSTSVGDRVSITCKASQNVRTSIAWYQQKSGQSPKTLIYLASNRHTGVPDRFTGSGSGTDFTLTISNVQSEDLADYFCLQHWNYPFTFGSGTKLEIK", "notes": "murine hybridoma antibody"}, "B2": {"name": "anti-human CD47 murine monoclonal antibody secreted by clone CD47-18-10 (antibody, V domains shown)", "VH": "B1 VH with L64F, I70M, P101T, I104V, P110Q", "VL": "B1 VL with S40P", "notes": "murine hybridoma antibody"}, "B3": {"name": "chimeric anti-human CD47 monoclonal antibody mAb-18-10 N297A (antibody, human IgG1, kappa, N297A)", "heavy": "not shown", "light": "DIVMTQSQKFMSTSVGDRVSITCKASQNVRTSIAWYQQKPGQSPKTLIYLASNRHTGVPDRFTGSGSGTDFTLTISNVQSEDLADYFCLQHWNYPFTFGSGTKLEIKRTVAAPSVFIFPPSDEQLKSGTASVVCLLNNFYPREAKVQWKVDNALQSGNSQESVTEQDSKDSTYSLSSTLTLSKADYEKHKVYACEVTHQGLSSPVTKSFNRGEC", "notes": "no further substitution applied"}, "B4": {"name": "humanized anti-human CD47 monoclonal antibody BH3008b (antibody, human IgG4 S228P, kappa, V domains shown)", "VH": "QVQLVQSGAEVKKPGSSVKVSCKASGFNIEDIYMHWVRQAPGQGLEWMGRIDPANDNTKYGPKLQGRVTITADTSTNTAYMELSSLRSEDTAVYYCVRRIPTDIMDYWGQGTTVTVSS", "VL": "DIQMTQSPSSLSASVGDRVTITCKASQNVRTSIAWYQQKPGKAPKTLIYLASNRHTGVPSRFSGSGSGTEFTLTISNLQPEDFATYYCLQHWNYPFTFGQGTKLEIKR", "notes": "variable regions of Z11; the summary calls the humanized antibody an IgG4; also called Z11"}, "B5": {"name": "humanized anti-human CD47 monoclonal antibody BH3011b (antibody, human IgG4 S228P, kappa, V domains shown)", "VH": "B4 VH", "VL": "B4 VL with Y87F", "notes": "variable regions of Z12; the summary calls the humanized antibody an IgG4; also called Z12; BH301Tb"}},
  "key": {"[1]": {"molecular_target": "T1, recombinant human CD47-Fc protein (ACROBiosystems, catalog number CD7-H52A5) (human, UniProt Q08722 19-139)", "T1 construct": "bought; not shown: Fc part of a bought fusion protein, not described", "T1 sequence (Q08722 19-139 limits assumed)": "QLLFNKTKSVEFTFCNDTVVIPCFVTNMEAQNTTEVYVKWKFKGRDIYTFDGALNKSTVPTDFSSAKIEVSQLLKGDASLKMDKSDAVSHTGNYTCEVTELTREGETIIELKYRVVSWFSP", "assay": "competition ELISA, coated CD47-Fc, competitor biotin-labelled SIRPα 2 nM", "description": "ELISA was used to determine whether the anti-human CD47 selection antibodies secreted by the positive clones can block the binding of CD47/SIRPα. A 96-well high-adsorption ELISA plate was coated with 1 μg/mL of the recombinant human CD47-Fc (ACROBiosystems) at 100 μL per well using carbonate buffer solution, pH=9.6 at 4° C. overnight. The plate was washed 5 times with PBST, and then blocked using PBST with 1% BSA, 300 μL/well, and incubated at 25° C. for 1 hour, and then washed 5 times with PBST. The anti-human CD47 selection antibody samples were added, 50 μL/well, the biotin-labelled SIRPα (ACROBiosystems) was added at a concentration of 4 nM (a final concentration of 2 nM), 50 μL/well, incubated at 25° C. for 90 minutes, and then washed 5 times with PBST. The Streptavidin-HRP (BD Pharmingen, catalog number 554066) diluted 1:1000 in PBST with 1% BSA was then added, 100 μL per well, and incubated at 25° C. for 1 hour. The plate was washed 5 times with PBST. The colorimetric substrate TMB was added, 100 μL/well, and developed at room temperature for 10 minutes. 1M H₂SO₄ was added, 100 μL/well, to stop the development. The absorbance at 450 nm was read on a microplate reader. The anti-human CD47 selection antibodies capable of inhibiting the binding of the human CD47-Fc/biotin-labelled SIRPα have a neutralizing activity. […]"}, "recombinant human CD47 [2]": {"molecular_target": "T2, recombinant human CD47 (human, UniProt Q08722 19-139)", "T2 construct": "also called antigen CD47", "T2 sequence (Q08722 19-139 limits assumed)": "as above", "assay": "ELISA, coated recombinant human CD47", "description": "(§1) ELISA was used to screen the anti-human CD47 antibodies in the hybridoma culture supernatants. A 96-well high-adsorption ELISA plate (Costar, catalog number 42592) was coated with 1 μg/mL of the recombinant human CD47 (Sino Biological Inc.) at 100 μL per well using carbonate buffer solution, pH=9.6 at 4° C. overnight. The plate was washed 5 times with PBST, and then blocked using PBST with 1% BSA, 300 μL/well, and incubated at 25° C. for 1 hour, and then washed 5 times with PBST. The culture supernatant samples and positive serum control were added, 100 μL/well, incubated at 25° C. for 1 hour, and then washed 5 times with PBST. The horseradish peroxidase-labeled anti-mouse IgG antibody (Abcam, catalog number Ab7068) diluted 1:10000 in PBST with 1% BSA was then added, 100 μL per well, and incubated at 25° C. for 1 hour. The plate was washed 5 times with PBST. The colorimetric substrate TMB was added, 100 μL/well, and developed at room temperature for 10 minutes. 1M H₂SO₄ was added, 100 μL/well, to stop the development. The absorbance at 450 nm was read on a microplate reader. Positive clones capable of secreting the anti-human CD47 selection antibodies were selected according to the magnitude of OD₄₅₀ₙₘ."}, "recombinant human CD47 [3]": {"molecular_target": "T2, recombinant human CD47", "assay": "ELISA, plate coated with 1 µg/mL recombinant human CD47, OD450", "description": "as §1, with “A” for “ELISA was used to screen the anti-human CD47 antibodies in the hybridoma culture supernatants. A”, “plate” for “plate (Costar, catalog number 42592)”, “anti-human CD47 antibody” for “culture supernatant”, “the” for “positive serum”, “control CC-90002 (a patent sequence from WO2016109415)” for “control”, “reader.” for “reader. Positive clones capable of secreting the anti-human CD47 selection antibodies were selected according to the magnitude of OD₄₅₀ₙₘ.”"}, "[4]": {"molecular_target": "T3, recombinant human B7-H2 (ACROBiosystems) (human, UniProt O75144 19-258, limits assumed)", "T3 construct": "counted here as a B7 family member", "T3 sequence (looked up)": "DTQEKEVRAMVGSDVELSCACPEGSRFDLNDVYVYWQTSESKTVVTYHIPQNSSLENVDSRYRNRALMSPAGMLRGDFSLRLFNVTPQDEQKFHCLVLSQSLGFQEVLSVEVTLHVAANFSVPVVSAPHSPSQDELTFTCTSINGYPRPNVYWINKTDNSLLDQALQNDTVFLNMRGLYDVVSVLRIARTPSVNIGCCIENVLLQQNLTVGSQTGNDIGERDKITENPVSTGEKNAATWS", "assay": "ELISA, coated recombinant protein", "description": "(§2) Binding specificity of the chimeric anti-human CD47 mAbs was determined by ELISA. A 96-well high-adsorption ELISA plate was coated with 1 μg/mL of the recombinant human PD1, CD28, CTLA4, ICOS, BTLA, CD47, PD-L2, CD80, CD86, B7-H2, CD47, SIRPα and SIRPγ (all from ACROBiosystems), at 100 μL per well using carbonate buffer solution, pH=9.6 at 4° C. overnight. The plate was washed 5 times with PBST, and then blocked using PBST with 1% BSA, 300 μL/well, and incubated at 25° C. for 1 hour, and then washed 5 times with PBST. The chimeric anti-human CD47 mAb samples serially diluted in PBST with 1% BSA and the control CC-90002 and the isotype control were added, 100 μL/well, incubated at 25° C. for 1 hour, and then washed 5 times with PBST. The horseradish peroxidase-labeled anti-human IgG antibody (Chemicon, catalog number AP309P) diluted 1:10000 in PBST with 1% BSA was then added, 100 μL per well, and incubated at 25° C. for 1 hour. The plate was washed 5 times with PBST. The colorimetric substrate TMB was added, 100 μL/well, and developed at room temperature for 10 minutes. 1M H₂SO₄ was added, 100 μL/well, to stop the development. The absorbance at 450 nm was read on a microplate reader."}, "[5]": {"molecular_target": "recombinant human SIRPγ (ACROBiosystems) (human, UniProt Q9P1W8 29-360, limits assumed)", "sequence (Q9P1W8 29-360 limits assumed)": "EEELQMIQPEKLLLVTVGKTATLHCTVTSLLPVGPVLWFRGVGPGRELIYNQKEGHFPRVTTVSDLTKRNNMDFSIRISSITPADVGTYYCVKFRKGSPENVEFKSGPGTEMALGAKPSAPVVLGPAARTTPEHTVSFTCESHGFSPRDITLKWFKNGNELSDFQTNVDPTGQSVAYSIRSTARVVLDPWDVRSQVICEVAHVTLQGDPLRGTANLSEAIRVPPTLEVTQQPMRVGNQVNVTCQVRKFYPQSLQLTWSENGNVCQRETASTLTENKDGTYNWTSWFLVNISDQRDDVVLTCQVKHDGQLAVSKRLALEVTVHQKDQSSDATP", "assay": "ELISA, coated recombinant protein", "description": "as §2"}, "[6]": {"molecular_target": "T1, recombinant human CD47-Fc protein …", "assay": "blocking ELISA: plate coated with human CD47-Fc, 2 nM biotin-labelled SIRPα as the blocked ligand, falling OD450 curve; the sheet labels the half-maximal value EC50", "description": "A 96-well high-adsorption ELISA plate was coated with 1 μg/mL of the recombinant human CD47-Fc (ACROBiosystems) at 100 μL per well using carbonate buffer solution, pH=9.6 at 4° C. overnight. The plate was washed 5 times with PBST, and then blocked using PBST with 1% BSA, 300 μL/well, and incubated at 25° C. for 1 hour, and then washed 5 times with PBST. The anti-human CD47 antibody samples were added, 50 μL/well, the biotin-labelled SIRPα (ACROBiosystems) was added at a concentration of 4 nM (a final concentration of 2 nM), 50 μL/well, incubated at 25° C. for 90 minutes, and then washed 5 times with PBST. The Streptavidin-HRP (BD Pharmingen, catalog number 554066) diluted 1:1000 in PBST with 1% BSA was then added, 100 μL per well, and incubated at 25° C. for 1 hour. The plate was washed 5 times with PBST. The colorimetric substrate TMB was added, 100 μL/well, and developed at room temperature for 10 minutes. 1M H₂SO₄ was added, 100 μL/well, to stop the development. The absorbance at 450 nm was read on a microplate reader."}, "recombinant human CD47 [7]": {"molecular_target": "T2, recombinant human CD47", "assay": "ELISA, plate coated with recombinant human CD47, OD450"}, "recombinant human CD47 [8]": {"molecular_target": "T2, recombinant human CD47", "assay": "SPR, Biacore X100, antibody captured on Protein A chip, CD47 as analyte", "from_the_text": "Biacore X100 instrument (purchased from GE) was used to detect the kinetic constant of the chimeric anti-human CD47 monoclonal antibodies binding to its antigen human CD47. This instrument utilizes optical surface plasmon resonance technology to detect the association and dissociation between the molecules coated on the biochip and the molecules to be tested. The main reagent used is Protein A chip (GE Healthcare, 29-1275-57). The experimental procedure is briefly described as follows: the chimeric anti-human CD47 antibodies were diluted in running buffer (1×HBS-EP+10 mM HEPES, 150 mM NaCl, 3 mM EDTA, 0.05% surfactant P20, pH7.4). During the capture-binding phase, the antibodies at a concentration of 2 μg/mL were injected for 60 seconds at a speed of 10 μL/min. During the binding phase, the antigen CD47 was diluted into multiple concentrations with running buffer, injected for 120 seconds at a speed of 30 μL/min respectively. During the dissociation phase, running buffer was injected for 600 seconds at a speed of 10 μL/min. The regeneration condition is 10 mM glycinate solution, pH1.5. Association kinetic constants and dissociation kinetic constants were analyzed and calculated by Biacore X100 evaluation software. The association kinetic constants, dissociation kinetic constants and dissociation equilibrium constants of the chimeric anti-human CD47 antibodies were shown in Table 7.\nAs mentioned above, Biacore X100 instrument was used to detect the binding kinetic constant of the humanized anti-human CD47 monoclonal antibodies to its antigen human CD47. The association kinetic constants, dissociation kinetic constants and dissociation equilibrium constants of the humanized anti-human CD47 antibodies were shown in Table 10."}, "[9]": {"molecular_target": "T1, recombinant human CD47-Fc protein …", "assay": "blocking ELISA: plate coated with human CD47-Fc, biotin-labelled SIRPα as the blocked ligand, falling OD450 curve; the sheet labels the half-maximal value EC50"}},
  "note": "Residue numbers refer to the chain shown, from its start.",
  "data": [
    {"binder": "B1", "values": [
      {"measurement": "IC50", "setting": "[1]", "value": 1.48, "unit": "nM"},
      {"measurement": "EC50", "setting": "recombinant human CD47 [2]", "value": 0.252, "unit": "nM"}
    ]},
    {"binder": "B2", "values": [
      {"measurement": "IC50", "setting": "[1]", "value": 2.1, "unit": "nM"},
      {"measurement": "EC50", "setting": "recombinant human CD47 [2]", "value": 0.273, "unit": "nM"}
    ]},
    {"binder": "B3", "values": [
      {"measurement": "EC50", "setting": "recombinant human CD47 [3]", "value": 0.031, "unit": "nM"},
      {"measurement": "binding result", "setting": "[4]", "value": "no binding"},
      {"measurement": "binding result", "setting": "[5]", "value": "no binding"},
      {"measurement": "IC50", "setting": "[6]", "value": 1.69, "unit": "nM"}
    ]},
    {"binder": "B4", "values": [
      {"measurement": "EC50", "setting": "recombinant human CD47 [7]", "value": 0.035, "unit": "nM"},
      {"measurement": "Kd", "setting": "recombinant human CD47 [8]", "value": 1.17, "unit": "nM"},
      {"measurement": "koff", "setting": "recombinant human CD47 [8]", "value": 0.00117, "unit": "s⁻¹"},
      {"measurement": "kon", "setting": "recombinant human CD47 [8]", "value": 998000, "unit": "M⁻¹ s⁻¹"},
      {"measurement": "IC50", "setting": "[9]", "value": 0.781, "unit": "nM"}
    ]},
    {"binder": "B5", "values": [
      {"measurement": "EC50", "setting": "recombinant human CD47 [7]", "value": 0.029, "unit": "nM"},
      {"measurement": "Kd", "setting": "recombinant human CD47 [8]", "value": 0.833, "unit": "nM"},
      {"measurement": "koff", "setting": "recombinant human CD47 [8]", "value": 0.000852, "unit": "s⁻¹"},
      {"measurement": "kon", "setting": "recombinant human CD47 [8]", "value": "1.02e+06", "unit": "M⁻¹ s⁻¹"},
      {"measurement": "IC50", "setting": "[9]", "value": 0.741, "unit": "nM"}
    ]}
  ]
}
